Values joined by “and” are separate entries in the source; they are usually repeats but may differ in a detail not shown here. Equal entries are not always repeated.
How the values were obtained:
[1] = test system: erbB receptor phosphorylation (p185) in L6 cells; test: L6 assay: block of NRG-induced erbB receptor phosphorylation (p185); assay type: cell-based; conditions: comparable amounts of antagonist with 50 pM NRG (IG-EGF form), 45 min
Protocol: (§1) 4. Cell culture: The L6 cells were cultured in DMEM supplemented with 10% fetal calf serum, 1 mM L-glutamine and 1000 U/ml penicillin/streptomycin at 37° C. in 10% CO2 incubator. The HEK293 cells were cultured in DMEM with 10% fetal calf serum, 1 mM L-glutamine, 2 mM sodium pyruvate, 0.1 mM non-essential amino acids, 1000 U/ml penicillin/streptomycin at 37° C. in 10% CO2 incubator. The selective antibiotics Geneticin 200 μg/ml (Gibco-Invitrogen) was added to the cell cultures of stably transfected HEK293 cells harboring the NRG antagonists. 5. Stable expression of NRG antagonists in HEK293 cells: HEK293 cells were cultured in […] flasks to 80% confluence and transfected with the four NRG antagonist constructs using lipofectamine 2000 (Invitrogen Life Science) as instructed. The antibiotic Geneticin was then added at a concentration of 400 μg/ml to the transfected HEK293 cells to select the positive antagonist transfected cells. After three weeks of Geneticin selection, the transfected HEK293 cells were diluted and plated in 96 well plates to yield single positive clones. The single clones that expressed the highest levels of antagonists (confirmed by western blot using HA antibody) were then maintained in culture media with 200 μg/ml Geneticin. Optimem I (Gibco-Invitrogen) was applied to the stably transfected NRG antagonist cell lines at 37° C. in 10% CO2 incubator for 2 days. The conditioned Optimem I media was then used in the following experiments. 6. Heparin column binding: The conditioned media containing the four NRG antagonists was passed through the heparin column to allow binding to heparin. The excessive unbound antagonist proteins were washed off by 1×PBS twice. The antagonist proteins were then eluted by increasing concentration of NaCl (0.25, 0.3, 0.4, 0.5, 0.6 and 1M). The flow through solution from each step was examined by anti-HA western blots, as described later, to determine heparin binding ability of the antagonists. 7. Purification and quantitation of recombinant proteins: The NRG antagonists were purified by anti-HA affinity matrix (3F10) (rat mAb) according to manufacturer's instructions. Briefly, the column was equilibrated with buffer containing 20 mM Tris pH 7.5, 0.1 M NaCl, 0.1 M EDTA, and each antagonist in conditioned medium was applied individually to the anti-HA affinity matrix. Excess unbound antagonist proteins were washed with 20 volume of washing buffer (20 mM Tris pH 7.5, 0.1 M NaCl, 0.1 M EDTA and 0.05% Tween 20). The bound NRG antagonists were eluted with 0.1 M glycine (pH 2). The purified recombinant protein was then quantified using a BioRad Protein Assay kit (Bio-Rad, Hercules, Calif.) 8. Silver stain: Both the conditioned media and the purified NRG antagonists were resolved on 7.5% reducing SDS-polyacrylamide gels. The gel was fixed with 30% ethanol and 10% acetic acid for 30 min. 10% ethanol and ultrapure water were used subsequently to wash the gel before staining with SilverSNAP stain solution with enhancer for 30 min. The gel was then developed using SilverSNAP developer solution with enhancer. 5% acetic acid was used to stop the reaction when the desired band intensity was reached. The gel was dried on filter paper using a vacuum gel dyer. 9. […] Positive control L6 cells were treated with 50 pM NRG alone. L6 cell lysates were prepared and run on 5% SDS-PAGE gel. Western blots of erbB receptor phosphorylation were performed using 4G10 antibody. 10. Western blot: Western blots were performed on both conditioned NRG antagonist media and the antagonist-treated L6 cells. The antagonist proteins and the L6 cells were solubilized in SDS sample buffer and boiled for 5 min as described above (see also Li et al., supra). The NRG antagonists run on 7.5% SDS-PAGE gel were detected by anti-HA mAb HA.11. Phosphotyrosine mAb 4G10 was used to detect phosphorylated erbB receptor (p185) in L6 cell western blot analysis following resolution on overrun 5% reducing SDS-polyacrylamide gels. […]

Heparin column binding = conditions: for binding to heparin column: conditioned media, anti-HA western blot of flow through and elution; for NaCl concentration needed to elute from heparin column: elution with increasing NaCl (0.25-1 M)
Protocol: as §1

| Molecule | binding to heparin column (Heparin column binding) | NaCl concentration needed to elute from heparin column (Heparin column binding) | effect on NRG-induced p185 erbB receptor phosphorylation [1] |
| --- | --- | --- | --- |
| B4-HBD-HA: fusion polypeptide: erbB4 extracellular domain with NRG heparin-binding domain C-terminal, HA tag (protein, left off: small tags and cut ends) VCAGTENKLSSLSDLEQQYRALRKYYENCEVVMGNLEITSIEHNRDLSFLRSVREVTGYVLVALNQFRYLPLENLRIIRGTKLYEDRYALAIFLNYRKDGNFGLQELGLKNLTEILNGGVYVDQNKFLCYADTIHWQDIVRNPWPSNLTLVSTNGSSGCGRCHKSCTGRCWGPTENHCQTLTRTVCAEQCDGRCYGPYVSDCCHRECAGGCSGPKDTDCFACMNFNDSGACVTQCPQTFVYNPTTFQLEHNFNAKYTYGAFCVKKCPHNFVVDSSSCVRACPSSKMEVEENGIKMCKPCTDICPKACDGIGTGSLMSAQTVDSSNIDKFINCTKINGNLIFLVTGIHGDPYNAIEAIDPEKLNVFRTVREITGFLNIQSWPPNMTDFSVFSNLVTIGGRVLYSGLSLLILKQQGITSLQFQSLKEISAGNIYITDNSNLCYYHTINWTTLFSTINQRIVIRDNRKAENCTAEGMVCNHLCSSDGCWGPGPDQCLSCRRFSRGRICIESCNLYDGEFREFENGSICVECDPQCEKMEDGLLTCHGPGPDNCTKCSHFKDGPNCVEKCPDGLQGANSFIFKYADPDRECHPCHPNCTQGCNGPTSHDCIYYPWTGHSTLPQHAKNSAAGSQSPALPPRLKEMKSQESAAGSKLVLRCETSSEYSSLRFKWFKNGNELNRKNKPQNIKIQKKPGKSELRINKASLADSGEYMCKVISKLGNDSASANITIVE | bound the heparin column | 0.4 to 0.5 M | dramatically reduced erbB receptor activation |
| B4-HA: extracellular domain of erbB4 expressed alone without the HBD, HA tag (control) (protein, left off: small tags and cut ends) VCAGTENKLSSLSDLEQQYRALRKYYENCEVVMGNLEITSIEHNRDLSFLRSVREVTGYVLVALNQFRYLPLENLRIIRGTKLYEDRYALAIFLNYRKDGNFGLQELGLKNLTEILNGGVYVDQNKFLCYADTIHWQDIVRNPWPSNLTLVSTNGSSGCGRCHKSCTGRCWGPTENHCQTLTRTVCAEQCDGRCYGPYVSDCCHRECAGGCSGPKDTDCFACMNFNDSGACVTQCPQTFVYNPTTFQLEHNFNAKYTYGAFCVKKCPHNFVVDSSSCVRACPSSKMEVEENGIKMCKPCTDICPKACDGIGTGSLMSAQTVDSSNIDKFINCTKINGNLIFLVTGIHGDPYNAIEAIDPEKLNVFRTVREITGFLNIQSWPPNMTDFSVFSNLVTIGGRVLYSGLSLLILKQQGITSLQFQSLKEISAGNIYITDNSNLCYYHTINWTTLFSTINQRIVIRDNRKAENCTAEGMVCNHLCSSDGCWGPGPDQCLSCRRFSRGRICIESCNLYDGEFREFENGSICVECDPQCEKMEDGLLTCHGPGPDNCTKCSHFKDGPNCVEKCPDGLQGANSFIFKYADPDRECHPCHPNCTQGCNGPTSHDCIYYPWTGHSTLPQHAKN | did not | – | little effect |

More lines, main results first:

| binding to heparin column (Heparin column binding) | NaCl concentration needed to elute from heparin column (Heparin column binding) | Molecule | effect on NRG-induced p185 erbB receptor phosphorylation [1] |
| --- | --- | --- | --- |
| did not | – | HBD-B4-HA: fusion polypeptide: NRG heparin-binding domain N-terminal to erbB4 extracellular domain, no spacer, HA tag (protein, left off: small tags and cut ends) SAAGSQSPALPPRLKEMKSQESAAGSKLVLRCETSSEYSSLRFKWFKNGNELNRKNKPQNIKIQKKPGKSELRINKASLADSGEYMCKVISKLGNDSASANITIVEVCAGTENKLSSLSDLEQQYRALRKYYENCEVVMGNLEITSIEHNRDLSFLRSVREVTGYVLVALNQFRYLPLENLRIIRGTKLYEDRYALAIFLNYRKDGNFGLQELGLKNLTEILNGGVYVDQNKFLCYADTIHWQDIVRNPWPSNLTLVSTNGSSGCGRCHKSCTGRCWGPTENHCQTLTRTVCAEQCDGRCYGPYVSDCCHRECAGGCSGPKDTDCFACMNFNDSGACVTQCPQTFVYNPTTFQLEHNFNAKYTYGAFCVKKCPHNFVVDSSSCVRACPSSKMEVEENGIKMCKPCTDICPKACDGIGTGSLMSAQTVDSSNIDKFINCTKINGNLIFLVTGIHGDPYNAIEAIDPEKLNVFRTVREITGFLNIQSWPPNMTDFSVFSNLVTIGGRVLYSGLSLLILKQQGITSLQFQSLKEISAGNIYITDNSNLCYYHTINWTTLFSTINQRIVIRDNRKAENCTAEGMVCNHLCSSDGCWGPGPDQCLSCRRFSRGRICIESCNLYDGEFREFENGSICVECDPQCEKMEDGLLTCHGPGPDNCTKCSHFKDGPNCVEKCPDGLQGANSFIFKYADPDRECHPCHPNCTQGCNGPTSHDCIYYPWTGHSTLPQHAKN | little effect |
| bound the heparin column | > 1 M and 1 M | HBD-S-B4-HA: fusion polypeptide: NRG heparin-binding domain, glycosylated spacer, erbB4 extracellular domain, C-terminal HA tag (protein, left off: small tags and cut ends) QSGYKKKERGSGKKPESAAGSQSPALPPRLKEMKSQESAAGSKLVLRCETSSEYSSLRFKWFKPNGNELNRKNKQNIKIQKKPGKSELRINKASLADSGEYMCKVISKLGNDSASANITIVESNEIITGMPASTEGAYVSSESPIRISVSTEGANTSSSTSTSTTGTSGTQSVCAGTENKLSSLSDLEQQYRALRKYYENCEVVMGNLEITSIEHNRDLSFLRSVREVTGYVLVALNQFRYLPLENLRIIRGTKLYEDRYALAIFLNYRKDGNFGLQELGLKNLTEILNGGVYVDQNKFLCYADTIHWQDIVRNPWPSNLTLVSTNGSSGCGRCHKSCTGRCWGPTENHCQTLTRTVCAEQCDGRCYGPYVSDCCHRECAGGCSGPKDTDCFACMNFNDSGACVTQCPQTFVYNPTTFQLEHNFNAKYTYGAFCVKKCPHNFVVDSSSCVRACPSSKMEVEENGIKMCKPCTDICPKACDGIGTGSLMSAQTVDSSNIDKFINCTKINGNLIFLVTGIHGDPYNAIEAIDPEKLNVFRTVREITGFLNIQSWPPNMTDFSVFSNLVTIGGRVLYSGLSLLILKQQGITSLQFQSLKEISAGNIYITDNSNLCYYHTINWTTLFSTINQRIVIRDNRKAENCTAEGMVCNHLCSSDGCWGPGPDQCLSCRRFSRGRICIESCNLYDGEFREFENGSICVECDPQCEKMEDGLLTCHGPGPDNCTKCSHFKDGPNCVEKCPDGLQGANSFIFKYADPDRECHPCHPNCTQGCNGPTSHDCIYYPWTGHSTLPQHAKN | dramatically reduced erbB receptor activation |

From patent US7994123B2, “Hybrid proteins with ErbB4 extracellular domain and neuregulin heparin-binding domain for targeting” (Wayne State University, priority 2004, dated 2011)
